According to PMC6818130:

Experiments:
[1] = confocal immunofluorescence co-localisation with LAMP1; conditions: glycan lost; control: wild-type GILT
[2] = Western blot, steady-state level, Tet-induced 293 cells; conditions: glycan lost; control: wild-type GILT
[3] = glycan lost

Gamma-interferon-inducible lysosomal thiol reductase (GILT, IFI30): N63A
decreases: localisation_or_trafficking [1] | expression_or_secretion [2] | other: restriction of viral entry [3]

Gamma-interferon-inducible lysosomal thiol reductase (GILT, IFI30): N95A
decreases: localisation_or_trafficking [1] | expression_or_secretion [2] | other: restriction of viral entry [3]

Gamma-interferon-inducible lysosomal thiol reductase (GILT, IFI30): N108A
decreases: localisation_or_trafficking [1] | expression_or_secretion [2] | other: restriction of viral entry [3]
